Experimental data from US20100119478A1 (PROBIODRUG, published 2010).

B1: monoclonal antibody 348-2C9 (antibody, V domains shown)
VH: EVQLQQSGPELVKPGASVKMSCKASGYTFTDYYMDWVKQSHGESFECIGRVNPYNGGTSYNQKFKGKATLTVDKSSSTAYMELNSLTSEDSAVYYCARLGSSYRWGQGTTLTVSS
VL: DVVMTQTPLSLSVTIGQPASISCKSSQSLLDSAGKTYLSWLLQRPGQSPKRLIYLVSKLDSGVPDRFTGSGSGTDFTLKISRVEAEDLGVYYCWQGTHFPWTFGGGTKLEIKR
notes: Mouse IgG2b from hybridoma, Protein-G purified; also called Clone 2C9; DSM ACC 2906
B2: monoclonal antibody 348-1D4 (antibody, V domains shown)
VH: B1 VH
VL: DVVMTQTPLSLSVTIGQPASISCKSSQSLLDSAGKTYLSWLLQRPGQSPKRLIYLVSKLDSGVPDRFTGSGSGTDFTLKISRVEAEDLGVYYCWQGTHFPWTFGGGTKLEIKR
notes: Mouse IgG2b from hybridoma, Protein-G purified; also called Clone 1D4; DSM ACC 2905
B3: monoclonal antibody 332-4B8 (antibody, V domains shown)
VH: EVQLQQSGPELEKPGASVKISCKASGYSFTGYNMNWVKQNNGKSLEWIGNITPYYGSTSYNQKFKGRVTLTVDKSSSTAYMQLKSLTSEDSAVYFCLLWLRRGDYAMDYWGQGTSVTVSS
VL: DVLMTQTPLSLPVSLGDQASISCKSSQSIVHSNGNTYLEWYLQKPGQSPKLLIYKVFNRFSGVPDRFSGSGSGTDFTLKISRVEAEDLGVYYCFQGSHVPYTFGGGTKLEIKR
notes: Mouse IgG1 from hybridoma, Protein-G purified; also called Clone 4B8; 322-4B8

Target: T1, 11 EKLTGPDKAVT
T1 construct: member of group m23; also called PepSpot spot 11
T1 peptide: EKLTGPDKAVT
Experiment: PepSpot membrane, peptide 1 µg/spot, antibody 1 µg/ml, AP-conjugated anti-mouse detection
Method: (§1) Corresponding PepSpot membranes were prepared by JPT Peptide Technologies GmbH, Berlin (JPT). On these membranes, peptides with the indicated amino acid sequences (see FIG. 3; Z represents pE) were immobilized at a concentration of 1 μg/spot.
(§2) For analysis, membranes were blocked for two hours with TBST-M (=TBST+5% skimmed milk) at room temperature with gentle shaking. Membranes were incubated over night at 4° C. on a rocking platform with the individual MCP-1 N1pE antibody clones diluted to 1 μg/ml in equal volumes of TBST-M. Secondary anti-mouse antibody conjugated with alkaline phosphatase was used for signal detection, following standard procedures.

Row | Binder | binding result
1 | B1 | no binding (tested: 1 µg peptide per spot)
2 | B2 | no binding (tested: 1 µg peptide per spot)
3 | B3 | no binding (tested: 1 µg peptide per spot)

Target: T2, 07 AQPDAVNAPL
T2 construct: member of group m23; also called PepSpot spot 07
T2 peptide: AQPDAVNAPL
Experiment: as above
Method: as §1, §2

Row | Binder | binding result
4 | B1 | no binding (tested: 1 µg peptide per spot)
5 | B2 | no binding (tested: 1 µg peptide per spot)
6 | B3 | no binding (tested: 1 µg peptide per spot)

Target: T3, 16 LAQDALNVPST
T3 construct: member of group m23; also called PepSpot spot 16
T3 peptide: LAQDALNVPST
Experiment: as above
Method: as §1, §2

Row | Binder | binding result
7 | B1 | no binding (tested: 1 µg peptide per spot)
8 | B2 | no binding (tested: 1 µg peptide per spot)
9 | B3 | no binding (tested: 1 µg peptide per spot)

Target: T4, 09 DAVNAPL
T4 construct: member of group m23; also called PepSpot spot 09
T4 peptide: DAVNAPL
Experiment: as above
Method: as §1, §2

Row | Binder | binding result
10 | B1 | no binding (tested: 1 µg peptide per spot)
11 | B2 | no binding (tested: 1 µg peptide per spot)
12 | B3 | no binding (tested: 1 µg peptide per spot)
